From PMC4263166

Biological target: Spleen tyrosine kinase (Syk) (UniProt P43405)
Assay: affinity purification of mIgG2a-BCRs with protein A/G agarose beads, anti-Syk immunoblot, band intensity quantified
Details: no inhibitor, Ramos cells

- response (Syk/γ2am (normalized band intensity)) (stimulated for 5 min with polyclonal goat anti-mouse IgG antibodies): 1.7
- response (Syk/γ2am (normalized band intensity)) (unstimulated (0 min α-IgG)): 0.3
Substance: mIgG2a-BCR (wild-type mouse γ2am expressed in Ramos cells, with Igα/β) (from UniProt P11912;P40259) YF
